Data as given in patent US20240417439A1, “RECOMBINANT POLYPEPTIDE FOR DISRUPTING INTERACTION OF EAG2 AND KVß2 AND THERAPEUTIC APPLICATIONS THEREOF IN CANCER TREATMENT” (The Hospital for Sick Children, priority 2021, published 2024).
One block for each molecule: values may come before it. No end group written: not given here.

Tests used:
[1] = peptide treatment of non-tumor-bearing mice; assay type: in vivo
Description: To further determine the impact of peptide treatment on mouse physiology, non-tumor-bearing mice were treated with K59-78^TAT or K90-114^TAT.

[2] = target: T1, human voltage-gated potassium channel subfamily H member 5 (KCNH5, EAG2) (human, UniProt Q8NCM2 1-988); assay: co-IP in HEK293T cells
T1 construct: Full length EAG2 expressed in HEK293T cells and tested by co-IP from lysates; This id also stands for endogenous human EAG2 in lysates of GBM cells and of human fetal neural progenitor cells; also called full length EAG2
T1 sequence: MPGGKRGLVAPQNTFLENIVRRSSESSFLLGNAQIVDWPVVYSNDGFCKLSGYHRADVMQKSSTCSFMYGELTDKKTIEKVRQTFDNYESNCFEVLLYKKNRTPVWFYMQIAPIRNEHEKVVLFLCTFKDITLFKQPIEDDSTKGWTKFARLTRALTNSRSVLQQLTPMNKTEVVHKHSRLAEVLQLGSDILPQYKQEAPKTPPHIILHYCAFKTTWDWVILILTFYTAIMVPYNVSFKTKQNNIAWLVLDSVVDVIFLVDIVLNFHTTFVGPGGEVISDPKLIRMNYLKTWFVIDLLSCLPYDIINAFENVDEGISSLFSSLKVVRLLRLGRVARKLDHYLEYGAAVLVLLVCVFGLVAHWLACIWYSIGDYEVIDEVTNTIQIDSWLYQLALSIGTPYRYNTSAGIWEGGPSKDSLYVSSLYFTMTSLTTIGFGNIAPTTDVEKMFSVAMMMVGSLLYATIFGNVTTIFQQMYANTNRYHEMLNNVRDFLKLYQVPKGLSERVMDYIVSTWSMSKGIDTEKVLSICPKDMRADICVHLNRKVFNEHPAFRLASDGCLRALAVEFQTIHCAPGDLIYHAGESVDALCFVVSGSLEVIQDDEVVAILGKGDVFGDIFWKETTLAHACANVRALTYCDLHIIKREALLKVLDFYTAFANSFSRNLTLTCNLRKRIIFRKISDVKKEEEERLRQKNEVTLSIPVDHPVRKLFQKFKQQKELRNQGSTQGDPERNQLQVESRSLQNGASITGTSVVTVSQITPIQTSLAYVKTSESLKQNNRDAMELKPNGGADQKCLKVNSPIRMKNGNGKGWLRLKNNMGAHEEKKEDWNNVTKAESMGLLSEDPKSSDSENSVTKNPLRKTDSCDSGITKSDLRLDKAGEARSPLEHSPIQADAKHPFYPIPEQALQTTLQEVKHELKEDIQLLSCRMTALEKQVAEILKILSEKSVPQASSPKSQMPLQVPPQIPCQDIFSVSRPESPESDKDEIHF

[3] = target: T1, human voltage-gated potassium channel …; assay: co-IP of overexpressed proteins in HEK293T cells
[4] = target: T1, human voltage-gated potassium channel …; assay: co-IP in HEK293T cells (FIG. 26)
Description: Co-IPs of overexpressed proteins are performed using HEK293T cells.

binding result [2]: no binding
B6: Kvβ2 isoform 5 (other, human, UniProt Q13303-5 1-395, looked up)
chain: MYPESTTGSPARLSLRQTGSPGMIYSTRYGSPKRQLQFYRNLGKSGLRVSCLGLGTWVTFGGQITDEMAEQLMTLAYDNGINLFDTAEVYAAGKAEVVLGNIIKKKGWRRSSLVITTKIFWGGKAETERGLSRKHIIEGLKASLERLQLEYVDVVFANRPDPNTPMEETVRAMTHVINQGMAMYWGTSRWSSMEIMEAYSVARQFNLTPPICEQAEYHMFQREKVEVQLPELFHKIGVGAMTWSPLACGIVSGKYDSGIPPYSRASLKGYQWLKDKILSEEGRRQQAKLKELQAIAERLGCTLPQLAIAWCLRNEGVSSVLLGASNADQLMENIGAIQVRVRGPAGQRAHPSPSPVQCILPGSSCVPGSVLGTQDAPVNHQSCAPGELAFQQEQT
notes: Only the isoform number is printed; Whether it matches the UniProt isoform numbering is not confirmed

binding result [2]: no binding
B7: Kvβ2 isoform 2 (other, human, UniProt Q13303-2 1-353, looked up)
chain: MYPESTTGSPARLSLRQTGSPGMIYRNLGKSGLRVSCLGLGTWVTFGGQITDEMAEQLMTLAYDNGINLFDTAEVYAAGKAEVVLGNIIKKKGWRRSSLVITTKIFWGGKAETERGLSRKHIIEGLKASLERLQLEYVDVVFANRPDPNTPMEETVRAMTHVINQGMAMYWGTSRWSSMEIMEAYSVARQFNLTPPICEQAEYHMFQREKVEVQLPELFHKIGVGAMTWSPLACGIVSGKYDSGIPPYSRASLKGYQWLKDKILSEEGRRQQAKLKELQAIAERLGCTLPQLAIAWCLRNEGVSSVLLGASNADQLMENIGAIQVLPKLSSSIIHEIDSILGNKPYSKKDYRS
notes: as for B6

binding result [3]: no binding
B9: Kvß2 truncation mutant f9 (1-355 aa) (other)
chain: MYPESTTGSPARLSLRQTGSPGMIYSTRYGSPKRQLQFYRNLGKSGLRVSCLGLGTWVTFGGQITDEMAEQLMTLAYDNGINLFDTAEVYAAGKAEVVLGNIIKKKGWRRSSLVITTKIFWGGKAETERGLSRKHIIEGLKASLERLQLEYVDVVFANRPDPNTPMEETVRAMTHVINQGMAMYWGTSRWSSMEIMEAYSVARQFNLTPPICEQAEYHMFQREKVEVQLPELFHKIGVGAMTWSPLACGIVSGKYDSGIPPYSRASLKGYQWLKDKILSEEGRRQQAKLKELQAIAERLGCTLPQLAIAWCLRNEGVSSVLLGASNADQLMENIGAIQVLPKLSSSIIHEIDSIL
notes: Expressed in HEK293T cells

binding result [3]: no binding
B12: Kvß2 truncation mutant f3 (239-367 aa) (other)
chain: GAMTWSPLACGIVSGKYDSGIPPYSRASLKGYQWLKDKILSEEGRRQQAKLKELQAIAERLGCTLPQLAIAWCLRNEGVSSVLLGASNADQLMENIGAIQVLPKLSSSIIHEIDSILGNKPYSKKDYRS
notes: Expressed in HEK293T cells

binding result [3]: no binding
B13: Kvß2 truncation mutant f6 (317-367 aa) (other)
chain: VSSVLLGASNADQLMENIGAIQVLPKLSSSIIHEIDSILGNKPYSKKDYRS
notes: Expressed in HEK293T cells

Further lines, the molecule ahead of its results:

Molecule: GRKKRRQRRRPQGSGSGSYAAGKAEVVLGNIIKKKGWRRSSLV [K90-114^TAT]
pathological features of internal organs (heart, kidney, liver, lung) [1]: did not reveal pathological features
body weight ([1]; K59-78^TAT versus K90-114^TAT): comparable body weight
survival ([1]; K59-78^TAT versus K90-114^TAT): comparable

B1: Kvβ2 isoform 3 (other, human, UniProt Q13303-3 1-415, looked up)
chain: MLSMTYSESLRSVSSRCHSEWALHPVRQTDTLELQRLREVRAAAQARNMESFLRMHGLSLDGCTAQRTGMKYRNLGKSGLRVSCLGLGTWVTFGGQITDEMAEQLMTLAYDNGINLFDTAEVYAAGKAEVVLGNIIKKKGWRRSSLVITTKIFWGGKAETERGLSRKHIIEGLKASLERLQLEYVDVVFANRPDPNTPMEGDPFSSSKSRTFIIEETVRAMTHVINQGMAMYWGTSRWSSMEIMEAYSVARQFNLTPPICEQAEYHMFQREKVEVQLPELFHKIGVGAMTWSPLACGIVSGKYDSGIPPYSRASLKGYQWLKDKILSEEGRRQQAKLKELQAIAERLGCTLPQLAIAWCLRNEGVSSVLLGASNADQLMENIGAIQVLPKLSSSIIHEIDSILGNKPYSKKDYRS
notes: as for B6
binding result [2]: no binding

B2: Kvß2 truncation mutant f1 (1-158 aa) (other)
chain: MYPESTTGSPARLSLRQTGSPGMIYSTRYGSPKRQLQFYRNLGKSGLRVSCLGLGTWVTFGGQITDEMAEQLMTLAYDNGINLFDTAEVYAAGKAEVVLGNIIKKKGWRRSSLVITTKIFWGGKAETERGLSRKHIIEGLKASLERLQLEYVDVVFAN
notes: Expressed in HEK293T cells
binding result [3]: binds

B3: Kvß2 truncation mutant f5 (239-316 aa) (other)
chain: GAMTWSPLACGIVSGKYDSGIPPYSRASLKGYQWLKDKILSEEGRRQQAKLKELQAIAERLGCTLPQLAIAWCLRNEG
notes: Expressed in HEK293T cells
binding result [3]: no binding

B4: Kvß2 truncation mutant f7 (1-316 aa) (other)
chain: MYPESTTGSPARLSLRQTGSPGMIYSTRYGSPKRQLQFYRNLGKSGLRVSCLGLGTWVTFGGQITDEMAEQLMTLAYDNGINLFDTAEVYAAGKAEVVLGNIIKKKGWRRSSLVITTKIFWGGKAETERGLSRKHIIEGLKASLERLQLEYVDVVFANRPDPNTPMEETVRAMTHVINQGMAMYWGTSRWSSMEIMEAYSVARQFNLTPPICEQAEYHMFQREKVEVQLPELFHKIGVGAMTWSPLACGIVSGKYDSGIPPYSRASLKGYQWLKDKILSEEGRRQQAKLKELQAIAERLGCTLPQLAIAWCLRNEG
notes: Expressed in HEK293T cells
binding result [3]: binds

B5: Kvß2 truncation mutant f2 (79-316 aa) (other)
chain: NGINLFDTAEVYAAGKAEVVLGNIIKKKGWRRSSLVITTKIFWGGKAETERGLSRKHIIEGLKASLERLQLEYVDVVFANRPDPNTPMEETVRAMTHVINQGMAMYWGTSRWSSMEIMEAYSVARQFNLTPPICEQAEYHMFQREKVEVQLPELFHKIGVGAMTWSPLACGIVSGKYDSGIPPYSRASLKGYQWLKDKILSEEGRRQQAKLKELQAIAERLGCTLPQLAIAWCLRNEG
notes: Expressed in HEK293T cells
binding result [4]: binds

B8: Kvß2 truncation mutant f4 (79-158 aa) (other)
chain: NGINLFDTAEVYAAGKAEVVLGNIIKKKGWRRSSLVITTKIFWGGKAETERGLSRKHIIEGLKASLERLQLEYVDVVFAN
notes: Expressed in HEK293T cells
binding result [4]: binds

B10: Kvß2 isoform 4 (other)
chain: MAEQLMTLAYDNGINLFDTAEVYAAGKAEVVLGNIIKKKGWRRSSLVITTKIFWGGKAETERGLSRKHIIEGLKASLERLQLEYVDVVFANRPDPNTPMEETVRAMTHVINQGMAMYWGTSRWSSMEIMEAYSVARQFNLTPPICEQAEYHMFQREKVEVQLPELFHKIGVGAMTWSPLACGIVSGKYDSGIPPYSRASLKGYQWLKDKILSEEGRRQQAKLKELQAIAERLGCTLPQLAIAWCLRNEGVSSVLLGASNADQLMENIGAIQVLPKLSSSIIHEIDSILGNKPYSKKDYRS
notes: Expressed in HEK293T cells; also called Kvβ2 isoform 4; Kvß2 splice isoform 4
binding result [2]: binds

B11: Kvß2 truncation mutant f8 (1-342 aa) (other)
chain: MYPESTTGSPARLSLRQTGSPGMIYSTRYGSPKRQLQFYRNLGKSGLRVSCLGLGTWVTFGGQITDEMAEQLMTLAYDNGINLFDTAEVYAAGKAEVVLGNIIKKKGWRRSSLVITTKIFWGGKAETERGLSRKHIIEGLKASLERLQLEYVDVVFANRPDPNTPMEETVRAMTHVINQGMAMYWGTSRWSSMEIMEAYSVARQFNLTPPICEQAEYHMFQREKVEVQLPELFHKIGVGAMTWSPLACGIVSGKYDSGIPPYSRASLKGYQWLKDKILSEEGRRQQAKLKELQAIAERLGCTLPQLAIAWCLRNEGVSSVLLGASNADQLMENIGAIQVLPK
notes: Expressed in HEK293T cells
binding result [3]: binds
